For series [1], the target named is T1, ParB (ORF23, pMF1.23 product), His-tagged (Myxococcus fulvus 124B02 plasmid pMF1, UniProt B0YR32 12-86).
T1 sequence: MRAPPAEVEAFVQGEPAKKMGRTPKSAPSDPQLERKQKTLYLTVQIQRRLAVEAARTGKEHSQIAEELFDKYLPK
Put plainly: EMSA; EMSA: 12 mM HEPES, 4 mM Tris-HCl pH 8.0, 60 mM KCl, 5 mM MgCl2, 0.1 mM EDTA, 1 ug poly(dI-dC), 2% glycerol, 12 pmol probe, 30 min 30 C; footprint: HEMG (50 mM EDTA as printed, 50 mM KCl, 12.5 mM HEPES pH 7.6, 6 mM MgCl2, 5% glycerol), 20 mM HEPES pH 7.6, 5 ug poly(dI-dC), 30 min 30 C. The note with it: protein: recombinant; tags: N-terminal His6 (pET-15b); label: 3' biotin; blunt. For orientation: Mobility shift assays separate free from complexed probe on a gel.

For series [2], the target named is T2, ParC (ORF21, pMF1.21 product) (Myxococcus fulvus 124B02 plasmid pMF1, UniProt B0YR30 1-87).
T2 sequence: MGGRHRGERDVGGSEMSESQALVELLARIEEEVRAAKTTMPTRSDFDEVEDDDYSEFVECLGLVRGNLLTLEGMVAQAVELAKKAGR
Put plainly: EMSA; data not shown; EMSA: 12 mM HEPES, 4 mM Tris-HCl pH 8.0, 60 mM KCl, 5 mM MgCl2, 0.1 mM EDTA, 1 ug poly(dI-dC), 2% glycerol, 12 pmol probe, 30 min 30 C; footprint: HEMG (50 mM EDTA as printed, 50 mM KCl, 12.5 mM HEPES pH 7.6, 6 mM MgCl2, 5% glycerol), 20 mM HEPES pH 7.6, 5 ug poly(dI-dC), 30 min 30 C. As to conditions: protein: recombinant, tags: His6 (pET-15b), label: 3' biotin.

Series [3] addresses T3, ParB (ORF23, pMF1.23 product), His-tag free (Myxococcus fulvus 124B02 plasmid pMF1, UniProt B0YR32 12-86).
T3 sequence: T1 sequence
Put plainly: EMSA; similar affinity to His-tagged protein; EMSA: 12 mM HEPES, 4 mM Tris-HCl pH 8.0, 60 mM KCl, 5 mM MgCl2, 0.1 mM EDTA, 1 ug poly(dI-dC), 2% glycerol, 12 pmol probe, 30 min 30 C; footprint: HEMG (50 mM EDTA as printed, 50 mM KCl, 12.5 mM HEPES pH 7.6, 6 mM MgCl2, 5% glycerol), 20 mM HEPES pH 7.6, 5 ug poly(dI-dC), 30 min 30 C. As to conditions: protein: recombinant; tags: none; label: 3' biotin; blunt.

The target of series [4] is T1, ParB (ORF23, pMF1.23 product), …. Put plainly: EMSA; poly(dI-dC), 5 mM MgCl2; unlabeled ItA competes; EMSA: 12 mM HEPES, 4 mM Tris-HCl pH 8.0, 60 mM KCl, 5 mM MgCl2, 0.1 mM EDTA, 1 ug poly(dI-dC), 2% glycerol, 12 pmol probe, 30 min 30 C; footprint: HEMG (50 mM EDTA as printed, 50 mM KCl, 12.5 mM HEPES pH 7.6, 6 mM MgCl2, 5% glycerol), 20 mM HEPES pH 7.6, 5 ug poly(dI-dC), 30 min 30 C. The note with it: protein: recombinant; tags: N-terminal His6 (pET-15b); label: 3' biotin; blunt.

Series [5] shares this target. Put plainly: EMSA; up to 1000 ng protein; EMSA: 12 mM HEPES, 4 mM Tris-HCl pH 8.0, 60 mM KCl, 5 mM MgCl2, 0.1 mM EDTA, 1 ug poly(dI-dC), 2% glycerol, 12 pmol probe, 30 min 30 C; footprint: HEMG (50 mM EDTA as printed, 50 mM KCl, 12.5 mM HEPES pH 7.6, 6 mM MgCl2, 5% glycerol), 20 mM HEPES pH 7.6, 5 ug poly(dI-dC), 30 min 30 C. As to conditions: protein: recombinant; tags: N-terminal His6 (pET-15b); label: 3' biotin.

Series [6] shares this target. Put plainly: EMSA; unlabeled ItB competes; EMSA: 12 mM HEPES, 4 mM Tris-HCl pH 8.0, 60 mM KCl, 5 mM MgCl2, 0.1 mM EDTA, 1 ug poly(dI-dC), 2% glycerol, 12 pmol probe, 30 min 30 C; footprint: HEMG (50 mM EDTA as printed, 50 mM KCl, 12.5 mM HEPES pH 7.6, 6 mM MgCl2, 5% glycerol), 20 mM HEPES pH 7.6, 5 ug poly(dI-dC), 30 min 30 C. The note with it: protein: recombinant; tags: N-terminal His6 (pET-15b); label: 3' biotin; blunt.

B1: ItC (dsDNA)
DNA 1: AGACATCTGGAAGTCTGGATGTC
DNA 2: GACATCCAGACTTCCAGATGTCT
Regarding B1, in series [1], the binding result is on record as “binds”.

B2: ItA (dsDNA)
DNA 1: GGAAGTCTGGAAGTCTAGATGTCTAGATGTTTGAATGTTTGGAGTGGG
DNA 2: CCCACTCCAAACATTCAAACATCTAGACATCTAGACTTCCAGACTTCC
Regarding B2, the binding result in series [2] (blunt) is recorded as “no binding”; in series [3], “binds”; in series [4] it was “binds”.

B3: ItE (dsDNA)
DNA 1: AAGTGTCTAGATGTCTAGATGTCT
DNA 2: AGACATCTAGACATCTAGACACTT
Take B3: the binding result in series [1] is listed as “binds”.

B4: non-iteron fragment (dsDNA)
DNA 1: CGGGCGTCACAGGGGGGAACGCGATGTTGGAGGGTCGGAAATGAGCGAGTCG
DNA 2: CGACTCGCTCATTTCCGACCCTCCAACATCGCGTTCCCCCCTGTGACGCCCG
Take B4: the binding result in series [2] and in series [5] was “no binding” in each case.

B5: ItB (dsDNA)
DNA 1: GTGATGTCTAGAGGTCTGGATGTCTAGATGTCTAGATGTCT
DNA 2: AGACATCTAGACATCTAGACATCCAGACCTCTAGACATCAC
For the molecule B5, in series [6], the binding result is reported as “binds”.

B6: ItD (dsDNA)
DNA 1: AGAAGTCCAGACATCTGGACATTCAGAAGTCTAGACATCTGGATGTCCAGATGGGG
DNA 2: CCCCATCTGGACATCCAGATGTCTAGACTTCTGAATGTCCAGATGTCTGGACTTCT
In the case of B6, in series [1], the binding result is listed as “binds”.

B7: ItF (dsDNA)
DNA 1: AGAGGTCTAGGTGTCTGGAAGTCTGGAGGTCTGGATGTC
DNA 2: GACATCCAGACCTCCAGACTTCCAGACACCTAGACCTCT
Consider B7, for which the binding result in series [1] was “binds”.
